# From patent publication US20220363718A1 (Bicycle, published 2022)
# *1 amine or outer side, *2 acyl side, *3 side chain or, on linkers, in order; H or OH if unused. Bridges are numbered along the chain shown (N, C = ends). Where no end group is shown, it is not given here. [ ]: non-standard residue; d: D form. TATA = O=C(CC[*:1])N1CN(C(=O)CC[*:2])CN(C(=O)CC[*:3])C1; Trp(1-Me) = Cn1cc(C[C@H](N)C(=O)O)c2ccccc21; Arg(Me2a) = CN(C)C(=N)NCCC[C@H](N)C(=O)O; Lys(Me3) = C[N+](C)(C)CCCC[C@H](N)C(=O)O; Phe(4-F) = N[C@@H](Cc1ccc(F)cc1)C(=O)O; Ala(cPent) = N[C@@H](CC1CCCC1)C(=O)O; Ala(cPr) = N[C@@H](CC1CC1)C(=O)O; tBuAla = CC(C)(C)C[C@H](N)C(=O)O; NMeA = CN[C@@H](C)C(=O)O
# B1: Example 74 (peptide)
# peptide: CQWLEDCWRGXC
# modifications: not fully specified; N-term acetyl; CQWLEDCWRG[3-MePhe]C as printed; 3 Cys on TATA
# B2: Example 21 (peptide)
# peptide: CQXLEDCXRGXC
# modifications: not fully specified; N-term acetyl; CQ[5FTrp]LEDC[5FTrp]RG[4-FPhe]C as printed; 3 Cys on TATA
# B3: Example 22 (peptide)
# peptide: CQWLEDCWRGXC
# modifications: not fully specified; N-term acetyl; CQWLEDCWRG[3,4diFPhe]C as printed; 3 Cys on TATA
# B4: Example 28 (peptide)
# peptide: CWWLQDCWXGXC
# modifications: not fully specified; N-term acetyl; CWWLQDCW[ADMA]G[4-FPhe]C as printed; 3 Cys on TATA
# B5: Example 38 (peptide)
# peptide: CQXLEDCWXGXC
# modifications: not fully specified; N-term acetyl; CQ[Nal1]LEDCW[ADMA]G[4-FPhe]C as printed; 3 Cys on TATA
# B6: Example 27 (peptide)
# peptide: CQXLEDCWRGXC
# modifications: not fully specified; N-term acetyl; CQ[Nal1]LEDCWRG[4-FPhe]C as printed; 3 Cys on TATA
# B7: Example 41 (peptide)
# peptide: CQWLEDCWRGXC
# modifications: not fully specified; N-term acetyl; CQWLEDCWRG[3-F,4-ClPhe]C as printed; 3 Cys on TATA
# B8: Example 80 (peptide)
# peptide: Ac-CQW[Ala(cPr)]EDCWRGFC
# modifications: linker 1-7-12 via TATA; not fully specified (C-terminus); printed as CQW[CproA]EDCWRGFC
# B9: Example 26 (peptide)
# peptide: CQWLEDCWRGXC
# modifications: not fully specified; N-term acetyl; CQWLEDCWRG[4-BrPhe]C as printed; 3 Cys on TATA
# B10: Example 37 (peptide)
# peptide: CQWLEDCWRGXC
# modifications: not fully specified; N-term acetyl; CQWLEDCWRG[3,4,5triFPhe]C as printed; 3 Cys on TATA
# Molecular target: TSLP (as used in the human PBMC assay) (UniProt Q969D9 29-159)
# Experiment: cell-based or functional assay
row,"CCL17 % Inhibition @ 10 µM, 50 pM TSLP [%]",Binder
1,1,CQWLEDCWRGXC (not fully specified; Ac-CQWLEDCWRG[4-FPhe]C; 3 Cys cyclised with TATA) [Example 17]
2,89,Ac-C[NMeA][Trp(1-Me)][tBuAla]QDC[Trp(1-Me)][Arg(Me2a)]G[Phe(4-F)]C (linker 1-7-12 via TATA) [Example 18]
3,47,CQWXEDCWRGXC (not fully specified; Ac-CQW[tBuA]EDCWRG[4-FPhe]C; 3 Cys cyclised with TATA) [Example 4]
4,41,"CQWLEDCWRGXC (not fully specified; Ac-CQWLEDCWRG[3,4diFPhe]C; 3 Cys cyclised with TATA)"

# Molecular target: T1, Biotinylated human TSLP (human, biotinylated)
# T1 construct: also called hTSLP; thymic stromal lymphopoietin
# Experiment: SPR, biotinylated hTSLP on streptavidin chip
# T1 sequence (chain, as listed by the source limits assumed): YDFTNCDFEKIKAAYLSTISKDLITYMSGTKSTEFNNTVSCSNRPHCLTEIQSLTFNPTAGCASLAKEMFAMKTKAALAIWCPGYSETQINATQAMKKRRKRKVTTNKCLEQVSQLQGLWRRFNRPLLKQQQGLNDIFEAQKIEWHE
row,Kd [nM],Binder
1,91,B1
2,92,ACHWLEDCWRGFCHLE (linker 2-8-13 via TATA; not fully specified (C-terminus)) [Example 75]
3,62,CQWLEDCXRGXC (N-term acetyl; CQWLEDC[4-ClNal]RG[4-FPhe]C as printed; 3 Cys on TATA) [Example 60]
4,290,ACDWDWEYDCWLHCA (linker 2-10-14 via TATA) [Example 198]
5,9.2,B2
6,70,Ac-CQW[Ala(cPent)]EDCWRGFC (linker 1-7-12 via TATA) [Example 65]
7,6100,ACDWQWSYDCWLPCA (linker 2-10-14 via TATA) [Example 196]
8,310,RDLCTDLDPWTCPDWWLCA (linker 4-12-18 via TATA) [Example 189]
9,43,Ac-ACQWLEDCWRGFCPLD (linker 2-8-13 via TATA; not fully specified (C-terminus)) [Example 53]
10,82,ETNNLECQWLEDCWRGFCA (linker 7-13-18 via TATA) [Example 71]
11,9.7,B3
12,93,CQWLEDCWRGXC (N-term acetyl; CQWLEDCWRG[4-CF3Phe]C as printed; 3 Cys on TATA) [Example 77]
13,47,ACQWLEDCWRGFCDDAHAP (linker 2-8-13 via TATA) [Example 55]
14,1300,CTELDXWTCETWWLC (CTELD[diF-P]WTCETWWLC as printed; 3 Cys on TATA) [Example 182]
15,81,RVNTHQCRDLDPWTCSSWWLCA (linker 7-15-21 via TATA) [Example 190]
16,46,Ac-CQWLEDCWRGFCAPDERD (linker 1-7-12 via TATA) [Example 54]
17,65,ACTWLEDCWRGFCADS (linker 2-8-13 via TATA) [Example 63]
18,460,ACDWVWEYDCWLPCA (linker 2-10-14 via TATA) [Example 197]
19,85,SPPCVWLDDCWRGFCA (linker 4-10-15 via TATA) [Example 73]
20,8.6,CQWLQDCWXGXC (N-term acetyl; CQWLQDCW[ADMA]G[4-FPhe]C as printed; 3 Cys on TATA) [Example 20]

row,Kd [nM],Binder
1,12,B4
2,80,CQWLEDCWXGXC (N-term acetyl; CQWLEDCW[4-PipA]G[4-FPhe]C as printed; 3 Cys on TATA) [Example 70]
3,62,SDEQRTCQWLEDCWRGFCA (linker 7-13-18 via TATA) [Example 61]
4,290,CTELDXWTCETWWLC (CTELD[5-Ph-P]WTCETWWLC as printed; 3 Cys on TATA) [Example 194]
5,15000,CTELDXWTCETWWLC (CTELD[Chx-P]WTCETWWLC as printed; 3 Cys on TATA) [Example 195]
6,81,ACDWHWEYDCWLSCA (linker 2-10-14 via TATA) [Example 199]
7,20,B5
8,63,CAXLEDCWXGXC (N-term acetyl; CA[Nal1]LEDCW[Harg]G[4-FPhe]C as printed; 3 Cys on TATA) [Example 62]
9,86,RAPCPDLDPWTCSDWWLCA (linker 4-12-18 via TATA) [Example 187]
10,12,B6
11,24,B7
12,330,ACVDLDPWSCEDWWLCA (linker 2-10-16 via TATA) [Example 183]
13,100,Ac-CQWLEDCW[Lys(Me3)]GFC (linker 1-7-12 via TATA; not fully specified (C-terminus)) [Example 81]
14,100,B8
15,93,ACTWLDDCWRGFCA (linker 2-8-13 via TATA) [Example 76]
16,11,B9
17,68,DHDCTWNWEYDCWLDCA (linker 4-12-16 via TATA) [Example 200]
18,72,SHVCRDLDPWTCDSWWLCA (linker 4-12-18 via TATA) [Example 188]
19,19,B10
20,50,ACRDLDPWTCSSWWLCADGLYDA (linker 2-10-16 via TATA) [Example 193]
